Source: PMC12315504 (The FASEB Journal, 2021)
Read-outs that look alike come from different tables or passages of the source.

B1: Fgf15 (wild-type, mouse), in Hek293T conditioned medium (ligand, UniProt O35622 26-218, looked up)
chain: RPLAQQSQSVSDEDPLFLYGWGKITRLQYLYSAGPYVSNCFLRIRSDGSVDCEEDQNERNLLEFRAVALKTIAIKDVSSVRYLCMSADGKIYGLIRYSEEDCTFREEMDCLGYNQYRSMKHHLHIIFIQAKPREQLQDQKPSNFIPVFHRSFFETGDQLRSKMFSLPLESDSMDPFRMVEDVDHLVKSPSFQK
B2: Fgf15 (wild-type, mouse), in serum of mice after hydrodynamic delivery of the plasmid (ligand, UniProt O35622 26-218, looked up)
chain: RPLAQQSQSVSDEDPLFLYGWGKITRLQYLYSAGPYVSNCFLRIRSDGSVDCEEDQNERNLLEFRAVALKTIAIKDVSSVRYLCMSADGKIYGLIRYSEEDCTFREEMDCLGYNQYRSMKHHLHIIFIQAKPREQLQDQKPSNFIPVFHRSFFETGDQLRSKMFSLPLESDSMDPFRMVEDVDHLVKSPSFQK

Columns and labels:
non-reducing SDS-PAGE [1] = molecular target: the molecule itself; experiment: non-reducing SDS-PAGE
non-reducing SDS-PAGE [2] = molecular target: the molecule itself; experiment: non-reducing SDS-PAGE; remark: listed apart in the source

Protein | stoichiometry N (non-reducing SDS-PAGE [1]) | stoichiometry N (non-reducing SDS-PAGE [2])
B1 | 2 | 
B2 |  | 2
